Values of other authors, collected in patent publication US20110212858A1, “SYNTHETIC POLY D/L LYSINE FOR CONTROL OF DIRECTION AND RATE OF NEURITE GROWTH AND REGENERATION” (CHILDRENS HOSPITAL LOS ANGELES, priority 2008, published 2011).

Details: requires storage at −80° C.

Q: Which shelf life does the source give for laminin here?
A: limited shelf life
